These results are taken from PMC10786891, “Massively parallel profiling of RNA-targeting CRISPR-Cas13d”.

T1: EsCas13d, nuclease-dead (Eubacterium siraeum, UniProt B0MS50, R295A;H300A;R849A;H854A)
T1 sequence: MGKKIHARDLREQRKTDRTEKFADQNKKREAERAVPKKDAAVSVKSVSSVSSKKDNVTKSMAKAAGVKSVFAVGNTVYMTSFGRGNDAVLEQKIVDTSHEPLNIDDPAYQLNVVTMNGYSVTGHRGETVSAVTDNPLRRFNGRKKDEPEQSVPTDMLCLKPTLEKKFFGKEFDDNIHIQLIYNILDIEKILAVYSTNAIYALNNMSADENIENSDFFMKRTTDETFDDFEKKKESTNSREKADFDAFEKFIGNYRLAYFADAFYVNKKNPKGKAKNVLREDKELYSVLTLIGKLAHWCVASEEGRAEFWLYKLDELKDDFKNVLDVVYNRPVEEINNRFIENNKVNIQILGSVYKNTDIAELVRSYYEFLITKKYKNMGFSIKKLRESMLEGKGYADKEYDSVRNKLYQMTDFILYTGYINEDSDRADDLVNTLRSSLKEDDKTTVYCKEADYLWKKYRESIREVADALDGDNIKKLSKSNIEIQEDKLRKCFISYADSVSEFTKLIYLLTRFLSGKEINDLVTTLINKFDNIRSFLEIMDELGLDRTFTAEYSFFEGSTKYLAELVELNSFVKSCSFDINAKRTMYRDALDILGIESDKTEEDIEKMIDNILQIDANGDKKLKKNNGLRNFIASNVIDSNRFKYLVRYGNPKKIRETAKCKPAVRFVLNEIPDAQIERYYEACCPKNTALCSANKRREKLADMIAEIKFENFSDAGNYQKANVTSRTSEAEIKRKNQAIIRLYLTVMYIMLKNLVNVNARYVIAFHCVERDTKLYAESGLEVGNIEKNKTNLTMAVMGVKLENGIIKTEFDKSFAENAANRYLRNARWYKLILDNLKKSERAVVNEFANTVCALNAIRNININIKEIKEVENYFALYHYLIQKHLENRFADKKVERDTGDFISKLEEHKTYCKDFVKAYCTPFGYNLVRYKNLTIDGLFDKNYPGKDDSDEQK

B1: target 1 U8A,C22A (mixed)
RNA 1: CACCCGUGCAAAAAUGCAGGGGUCUAAAACUGAGCGGAUAACCUCUCUAUGG
RNA 2: GGGAAUGGAUCCACAUCUACGAAUUCGUAACAUAGAGAGGUUAACCGCUCACCGAGAUCGGAAGAGCACACGU
B2: target 1 G5C,G15U (mixed)
RNA 1: B1 RNA 1
RNA 2: B1 RNA 2 with A30C, G37U, A44U, G47C
B3: target 1 insG 3' of 21,insA 3' of 3 (mixed)
RNA 1: B1 RNA 1
RNA 2: GGGAAUGGAUCCACAUCUACGAAUUCGUACCGAUAGAGAGGUUAUCCGCUACACCGAGAUCGGAAGAGCACACGU
B4: target 3 insU 3' of 9,insA 3' of 7 (mixed)
RNA 1: CACCCGUGCAAAAUUGCAGGGGUCUAAAACGACCUGAAUAUUUCAGAUCAAA
RNA 2: GGGAAUGGAUCCACAUCUACGAAUUCGUUUUUGAUCUGAAAUAUUUACAGGUCUGCAGAUCGGAAGAGCACACGU
B5: target 3 insA 3' of 7,insG 3' of 7 (mixed)
RNA 1: B4 RNA 1
RNA 2: B4 RNA 2 with U46A, A47G
B6: target 3 insU 3' of 9,insA 3' of 6 (mixed)
RNA 1: B4 RNA 1
RNA 2: B4 RNA 2 with A47C, C48A
B7: target 3 U2A,U7C (mixed)
RNA 1: B4 RNA 1
RNA 2: GGGAAUGGAUCCACAUCUACGAAUUCGUUUUUGAUCUGAAAUAUCCAGGACUGCAGAUCGGAAGAGCACACGU
B8: target 3 G3C (mixed)
RNA 1: B4 RNA 1
RNA 2: B7 RNA 2 with C45U, G49C, A50U
B9: target 3 insA 3' of 2,insU 3' of 1 (mixed)
RNA 1: B4 RNA 1
RNA 2: B4 RNA 2 with U46C, C48G, A49G, G50U, G51A, U52C, C53U
B10: target 3 insC 3' of 11,insG 3' of 7 (mixed)
RNA 1: B4 RNA 1
RNA 2: B4 RNA 2 with U42C, A43U, U44A, A47G
B11: target 3 C1A,U2C (mixed)
RNA 1: B4 RNA 1
RNA 2: B7 RNA 2 with C45U, A50C, C51A
B12: target 3 C1G,G3C (mixed)
RNA 1: B4 RNA 1
RNA 2: B7 RNA 2 with C45U, G49C, A50U, C51G
B13: target 3 G3C,A9G (mixed)
RNA 1: B4 RNA 1
RNA 2: B7 RNA 2 with A43G, C45U, G49C, A50U
B14: target 3 G3C,U7A (mixed)
RNA 1: B4 RNA 1
RNA 2: B7 RNA 2 with C45A, G49C, A50U
B15: target 3 G3U,U7C (mixed)
RNA 1: B4 RNA 1
RNA 2: B7 RNA 2 with G49U, A50U
B16: target 3 insC 3' of 7,insA 3' of 7 (mixed)
RNA 1: B4 RNA 1
RNA 2: B4 RNA 2 with U46C
B17: target 3 insC 3' of 22,insA 3' of 3 (mixed)
RNA 1: B4 RNA 1
RNA 2: GGGAAUGGAUCCACAUCUACGAAUUCGUUUCUUGAUCUGAAAUAUUCAGGAUCUGCAGAUCGGAAGAGCACACGU
B18: target 3 C1A,G3C (mixed)
RNA 1: B4 RNA 1
RNA 2: B7 RNA 2 with C45U, G49C, A50U, C51A
B19: target 3 U2G,G4A (mixed)
RNA 1: B4 RNA 1
RNA 2: B7 RNA 2 with C45U, G48A, A50G
B20: target 3 insA 3' of 22,insU 3' of 11 (mixed)
RNA 1: B4 RNA 1
RNA 2: B17 RNA 2 with C31A, A44U, U45A, C47U, A48C, G49A, A51G
B21: target 3 A18U,U22A (mixed)
RNA 1: B4 RNA 1
RNA 2: B7 RNA 2 with U30A, A34U, C45U, A50U
B22: target 3 A9U (mixed)
RNA 1: B4 RNA 1
RNA 2: B7 RNA 2 with A43U, C45U, A50U
B23: target 3 del1,del15 (mixed)
RNA 1: B4 RNA 1
RNA 2: GGGAAUGGAUCCACAUCUACGAAUUCGUUUUUGAUCGAAAUAUUCAGGUUGCAGAUCGGAAGAGCACACGU
B24: target 3 C6U,A12C (mixed)
RNA 1: B4 RNA 1
RNA 2: B7 RNA 2 with A40C, C45U, C46U, A50U
B25: target 3 U20A,U21G (mixed)
RNA 1: B4 RNA 1
RNA 2: B7 RNA 2 with U31G, U32A, C45U, A50U
B26: target 3 C1G,A9U (mixed)
RNA 1: B4 RNA 1
RNA 2: B7 RNA 2 with A43U, C45U, A50U, C51G
B27: target 3 U2A,U22G (mixed)
RNA 1: B4 RNA 1
RNA 2: B7 RNA 2 with U30G, C45U
B28: target 3 insC 3' of 9,insU 3' of 3 (mixed)
RNA 1: B4 RNA 1
RNA 2: B4 RNA 2 with U44C, A47C, C48A, A49G, G51U
B29: target 3 insU 3' of 22,insG 3' of 1 (mixed)
RNA 1: B4 RNA 1
RNA 2: B17 RNA 2 with C31U, A51U, U52C, C53G
B30: target 3 C1U,U2C (mixed)
RNA 1: B4 RNA 1
RNA 2: B7 RNA 2 with C45U, A50C, C51U
B31: target 3 insA 3' of 2,insG 3' of 1 (mixed)
RNA 1: B4 RNA 1
RNA 2: B4 RNA 2 with U46C, C48G, A49G, G50U, G51A, U52C, C53G

Substitutions are numbered along the chain they refer to. Names and notes keep the numbering of the source.

For the data set, the target named is T1, EsCas13d, nuclease-dead. As to the kind of experiment: crRNA (strand 1, pre-loaded); Mg2+; 40 mM Tris-HCl pH 7.5, 150 mM NaCl, 6 mM MgCl2, 1 mM DTT, 0.1% Tween-20, 0.2 mg/ml BSA; 25 C; 10 min per concentration, then washed. To be noted: tags: His6-TwinStrep-SUMO cleaved; N-terminal SNAP kept (SNAP-Surface 488); label: 3' end held by stalled T7 RNA polymerase.
Molecule B1 came in with a Kd of 31.1 ± 2.2 nM. As for B2, the Kd was 28.6 ± 2.4 nM. As for B3, the Kd was 54 ± 12 nM. In turn, B4 yielded a dissociation constant Kd of 51 ± 10.5 nM. B5 returned a Kd of 30.4 ± 3.7 nM. Take B6: the dissociation constant (Kd) came out at 85 ± 40 nM. Molecule B7 registered a Kd of 38 ± 13 nM. Molecule B8 yielded a Kd of 19.9 ± 1.35 nM. The molecule B9 displayed a Kd of 85.5 ± 20.5 nM. B10 registered a Kd of 49 ± 11.5 nM.

Molecule B11 gave a dissociation constant Kd of 18.6 ± 3.7 nM.

Take B12: the Kd amounted to 26.5 ± 5 nM.

As to B13, binding was put at a Kd of 55.5 ± 5.5 nM.

Consider B14, for which the Kd came to 32.9 ± 3.6 nM. The result for B15 reads 86 ± 36 nM.

Molecule B16 gave a Kd of 11 ± 1.4 nM.

B17: the Kd was found to be 65.5 ± 14 nM. Regarding B18, binding was characterised by a dissociation constant (Kd) of 65.5 ± 29.5 nM. The same measure for B19: 2.01 ± 0.17 nM; for B20: 72.5 ± 15.5 nM. In turn, B21 yielded a Kd of 97.5 ± 30.5 nM. B22 showed a Kd of approximately 120 nM. The same measure for B23: 62 ± 18 nM; for B24: 72 ± 12.5 nM. As to B25, the Kd came out at 98 ± 39.5 nM. B26 had a Kd of 100 ± 40 nM. The same measure for B27: 65.5 ± 11.5 nM; for B28: 114 ± 29 nM. B29 had a Kd of 32.5 ± 5.5 nM. Turning to B30, the dissociation constant (Kd) was 54 ± 18.5 nM. In turn, B31 displayed a Kd of 36 ± 9 nM.

The Kd is the concentration at which binding is half-saturated. A lower Kd goes with tighter binding.
